In the Human Domainome abundance scans (Beltran et al. 2025) one finds abundance fitness data, which are given here for 167 variants.

Sequences and labels used below:
B1: CD2-associated protein, residues 1 to 59; numbered along this chain, Q9Y5K6 (parent)
chain: MVDYIVEYDYDAVHDDELTIRVGEIIRNVKKLQEEGWLEGELNGRRGMFPDNFVKEIKR

± gives the uncertainty stated by the source.

In this data set the parent is B1. The data set is described as follows: abundance fitness (aPCA) (normalised: wild type 0, dead -1); higher = more abundant; growth selection in yeast, the domain comes from the species named. Conditions: Homo sapiens.
As to D51V, the abundance fitness is -0.066 ± 0.091.

Take D51L: the abundance fitness is -0.017 ± 0.067.

On to R59C, for which the abundance fitness is 0.035 ± 0.29.

For R59Y, the abundance fitness was -0.156 ± 0.26.

R59Q: the abundance fitness was determined as 0.024 ± 0.25.

Turning to R59P, the abundance fitness came to 0.2 ± 0.15.

Consider R59S, for which the abundance fitness stood at 0.052 ± 0.1.

Take R59M: the abundance fitness is -0.058 ± 0.1.

Take R46T: the abundance fitness was -0.082 ± 0.13.

Take R46I: the abundance fitness was -0.243 ± 0.37.

As for R46K, the abundance fitness is -0.181 ± 0.17.

For R46W, the abundance fitness is -0.434 ± 0.16.

In the case of V13R, the abundance fitness is -0.149 ± 0.077.

On to V13Y, for which the abundance fitness was -0.328 ± 0.25.

As to Y8K, the abundance fitness came out at 0.057 ± 0.12.

Y8D: the abundance fitness was -0.197 ± 0.22.

Consider W37I, for which the abundance fitness is -0.451 ± 0.18.

In the case of W37K, the abundance fitness was -0.469 ± 0.35.

Regarding M1T, the abundance fitness is -0.228 ± 0.11.

With M1N, the abundance fitness was -0.425 ± 0.34.

For M1L, the abundance fitness came out at 0.015 ± 0.097.

Regarding I57V, the abundance fitness is -0.03 ± 0.37.

On to R45N, for which the abundance fitness was -0.16 ± 0.14.

Take L38D: the abundance fitness is -0.721 ± 0.38.

As to L38C, the abundance fitness was -0.193 ± 0.11.

L38V: the abundance fitness is -0.525 ± 0.12.

With D3P, the abundance fitness was -0.436 ± 0.11.

As to D3A, the abundance fitness is -0.232 ± 0.066.

With D3G, the abundance fitness was -0.437 ± 0.065.

Turning to D3K, the abundance fitness is -0.297 ± 0.079.

Take D3V: the abundance fitness is -0.379 ± 0.067.

As to E56R, the abundance fitness was -0.137 ± 0.089.

On to E56A, for which the abundance fitness was -0.002 ± 0.12.

For E56S, the abundance fitness was -0.256 ± 0.11.

E56V: the abundance fitness is -0.05 ± 0.27.

For M48H, the abundance fitness is -0.257 ± 0.11.

In the case of M48L, the abundance fitness is -0.065 ± 0.079.

With M48N, the abundance fitness amounted to 0.047 ± 0.17.

On to M48V, for which the abundance fitness was -0.053 ± 0.069.

Take M48G: the abundance fitness is -0.33 ± 0.11.

In the case of M48I, the abundance fitness was found to be 0.115 ± 0.17.

As for M48T, the abundance fitness came out at 0.035 ± 0.094.

For V6S, the abundance fitness was -0.363 ± 0.054.

With V6T, the abundance fitness is -0.367 ± 0.082.

Turning to I25G, the abundance fitness was -0.718 ± 0.17.

On to I25S, for which the abundance fitness is -0.541 ± 0.14.

Consider I25M, for which the abundance fitness is -0.28 ± 0.15.

As to I25T, the abundance fitness was -0.064 ± 0.12.

Take L42Q: the abundance fitness was -0.328 ± 0.19.

With L42T, the abundance fitness was -0.515 ± 0.18.

As to D9L, the abundance fitness was -0.92 ± 0.24.

Turning to D9K, the abundance fitness was -0.369 ± 0.32.

As for N43Q, the abundance fitness was -0.287 ± 0.12.

Turning to N43V, the abundance fitness was -0.694 ± 0.18.

Regarding N43L, the abundance fitness is -0.323 ± 0.06.

As to N43E, the abundance fitness is -0.192 ± 0.45.

As for N43M, the abundance fitness is -0.395 ± 0.15.

Regarding N43K, the abundance fitness was -0.149 ± 0.12.

Regarding R27Y, the abundance fitness is -0.291 ± 0.075.

Consider R27V, for which the abundance fitness was -0.096 ± 0.076.

Regarding R27Q, the abundance fitness is -0.147 ± 0.18.

Regarding E35F, the abundance fitness was -0.158 ± 0.15.

In the case of E35D, the abundance fitness is -0.032 ± 0.084.

Regarding E35H, the abundance fitness was -0.068 ± 0.14.

Regarding E35Y, the abundance fitness is -0.215 ± 0.15.

As for E39Q, the abundance fitness was -0.248 ± 0.2.

In the case of E39F, the abundance fitness was -0.432 ± 0.19.

On to V54R, for which the abundance fitness is -0.557 ± 0.19.

For K30F, the abundance fitness is -0.158 ± 0.14.

Regarding K30C, the abundance fitness is -0.148 ± 0.12.

Regarding Q33H, the abundance fitness is -0.119 ± 0.091.

Q33S: the abundance fitness turned out to be 0.03 ± 0.069.

On to Q33M, for which the abundance fitness is -0.238 ± 0.23.

For the variant Q33F, the abundance fitness is -0.182 ± 0.06.

Turning to I5E, the abundance fitness is -0.267 ± 0.18.

With I5Q, the abundance fitness was 0.037 ± 0.18.

As for N52H, the abundance fitness is -0.284 ± 0.13.

Consider N52Y, for which the abundance fitness is -0.203 ± 0.19.

With N52E, the abundance fitness is -0.263 ± 0.34.

As for I26N, the abundance fitness is -0.988 ± 0.33.

On to I26V, for which the abundance fitness is -0.177 ± 0.13.

With I26A, the abundance fitness was -0.636 ± 0.32.

Regarding I26W, the abundance fitness is -0.743 ± 0.23.

For V29C, the abundance fitness is -0.167 ± 0.46.

Regarding E17V, the abundance fitness was -0.747 ± 0.23.

For the variant E17D, the abundance fitness is -0.13 ± 0.4.

Regarding I20P, the abundance fitness was -0.762 ± 0.22.

For L32T, the abundance fitness is -0.302 ± 0.21.

On to L32M, for which the abundance fitness was -0.159 ± 0.24.

Take Y4P: the abundance fitness was -0.863 ± 0.35.

Turning to P50I, the abundance fitness was -0.843 ± 0.29.

On to Y10G, for which the abundance fitness was -0.671 ± 0.21.

On to Y10D, for which the abundance fitness is -0.473 ± 0.46.

Turning to Y10C, the abundance fitness was -0.569 ± 0.22.

K31L: the abundance fitness is -0.214 ± 0.09.

For K31W, the abundance fitness is -0.328 ± 0.12.

Take K31A: the abundance fitness stood at 0.053 ± 0.11.

With K31G, the abundance fitness was -0.096 ± 0.083.

On to E24W, for which the abundance fitness was -0.764 ± 0.18.

Consider E24R, for which the abundance fitness is -0.687 ± 0.087.

E24V: the abundance fitness is -0.94 ± 0.24.

Regarding L18A, the abundance fitness was -0.683 ± 0.34.

In the case of L18K, the abundance fitness is -0.737 ± 0.46.

As for G23N, the abundance fitness is -0.581 ± 0.24.

Consider G23K, for which the abundance fitness is -0.383 ± 0.2.

With G23Q, the abundance fitness is -0.557 ± 0.26.

On to G23Y, for which the abundance fitness was -0.522 ± 0.24.

For G23A, the abundance fitness was -0.911 ± 0.29.

Regarding K58R, the abundance fitness was -0.036 ± 0.14.

Turning to E34Y, the abundance fitness was -0.089 ± 0.3.

As to E34K, the abundance fitness was found to be 0.075 ± 0.15.

For the variant E34I, the abundance fitness worked out at 0.074 ± 0.24.

Consider D16A, for which the abundance fitness is -0.045 ± 0.059.

On to D16G, for which the abundance fitness is -0.069 ± 0.068.

As to D16M, the abundance fitness is -0.073 ± 0.13.

Turning to D16E, the abundance fitness is -0.115 ± 0.086.

As for D16V, the abundance fitness is -0.088 ± 0.065.

For G40S, the abundance fitness was -0.463 ± 0.12.

On to G40D, for which the abundance fitness is -0.825 ± 0.36.

As for G40E, the abundance fitness is -0.926 ± 0.41.

Regarding K55H, the abundance fitness was -0.301 ± 0.27.

For K55N, the abundance fitness was -0.272 ± 0.17.

On to K55I, for which the abundance fitness is -0.177 ± 0.12.

K55Q: the abundance fitness stood at 0.032 ± 0.11.

For the variant K55M, the abundance fitness is -0.218 ± 0.14.

On to K55F, for which the abundance fitness was -0.961 ± 0.42.

Regarding E7S, the abundance fitness is -0.212 ± 0.094.

For the variant E7D, the abundance fitness was -0.256 ± 0.15.

Regarding E7Q, the abundance fitness is -0.131 ± 0.11.

For V22C, the abundance fitness is -0.304 ± 0.22.

V22R: the abundance fitness is -0.082 ± 0.12.

Turning to G36N, the abundance fitness was -0.174 ± 0.12.

Consider G36L, for which the abundance fitness was -0.978 ± 0.18.

Take G36P: the abundance fitness is -0.143 ± 0.17.

With G36Q, the abundance fitness is -0.467 ± 0.3.

In the case of G36D, the abundance fitness was -0.551 ± 0.1.

Consider N28E, for which the abundance fitness is -0.185 ± 0.095.

For N28F, the abundance fitness is -0.516 ± 0.12.

For the variant N28S, the abundance fitness is -0.176 ± 0.076.

In the case of A12P, the abundance fitness is -0.591 ± 0.1.

In the case of A12Q, the abundance fitness was -0.349 ± 0.12.

Regarding A12Y, the abundance fitness is -1.05 ± 0.4.

As to A12L, the abundance fitness is -1.12 ± 0.16.

In the case of V2L, the abundance fitness is -0.087 ± 0.074.

Consider V2I, for which the abundance fitness is 0.054 ± 0.16.

Consider V2F, for which the abundance fitness amounted to 0.008 ± 0.14.

Consider V2N, for which the abundance fitness turned out to be 0.064 ± 0.27.

Consider V2M, for which the abundance fitness came out at 0.087 ± 0.12.

Consider H14A, for which the abundance fitness is -0.113 ± 0.14.

With H14Q, the abundance fitness is -0.086 ± 0.15.

Consider H14T, for which the abundance fitness was -0.001 ± 0.12.

As to T19K, the abundance fitness is -0.464 ± 0.09.

Take T19H: the abundance fitness is -0.399 ± 0.23.

On to T19D, for which the abundance fitness was -0.36 ± 0.15.

For the variant E41W, the abundance fitness is -0.31 ± 0.14.

On to E41Y, for which the abundance fitness was -0.532 ± 0.28.

Consider E41V, for which the abundance fitness is -0.535 ± 0.22.

Regarding D15V, the abundance fitness was -0.038 ± 0.069.

With D15I, the abundance fitness is -0.415 ± 0.24.

As for R21Y, the abundance fitness is -1 ± 0.33.

As for R21M, the abundance fitness is -0.713 ± 0.31.

Take R21T: the abundance fitness was -0.593 ± 0.13.

Consider R21P, for which the abundance fitness is -0.793 ± 0.43.

With F53M, the abundance fitness is -0.047 ± 0.28.

With F53Q, the abundance fitness is -0.317 ± 0.12.

For F53E, the abundance fitness is -0.155 ± 0.21.

As for F53I, the abundance fitness was -0.119 ± 0.14.
